From patent US20210386788A1, “ER TUNABLE PROTEIN REGULATION” (Obsidian Therapeutics, Inc., priority 2018, published 2021)

Legend:
Type in all cases: cell-based, human
primary T cells = assay: CD19 CAR expression on lentivirus transduced primary T cells (flow cytometry with CD19-Fc); conditions: for CAR expression, % positive: day 7 of T cell expansion
Experimental: (§1) Primary T cells were activated with CD3/CD28 Dynabeads at 3:1 Bead: Cell ratio overnight, then transduced with OT-001792 lentivirus. On day 7 of the T cell expansion, CAR expression was measured by flow cytometry with CD19-Fc on cells treated overnight in the presence (34% positive) or absence (0.6% positive) of 1 μM Bazedoxifene. After the T cells had expanded for 10 days, they were mixed with CD19-expressing Nalm6 target cells at ratios of 10:1 and 2.5:1 total T cells:Nalm6 cells and cultured for 3 days.
Primary T cells were activated with CD3/CD28 Dynabeads at 3:1 Bead:Cell ratio overnight, then transduced with lentiviruses derived from the indicated constructs. On day 7 or day 9 (as indicated) of the T cell expansion, CAR expression was measured by flow cytometry with CD19-Fc on cells incubated for 24 hours with 1 μM Bazedoxifene or 1 μM Raloxifene or DMSO. […] At day 9 the basal percentage of CAR positive cells for the same constructs was even lower at approximately 20% i.e. in the absence of ligand and about 32-45% in the presence of either ligand. […] This was true at both day 7 and day 9.
Human donor T cells were thawed and activated overnight in the presence of CD3/CD28 Dynabeads at 3:1 bead:cell ratio, then transduced with lentivirus related to OT-002158, or OT-001786. Cells were expanded over the course of 10 days, with fresh media added to maintain cells at around 0.5×10^6 cells/mL. On day 9, an aliquot of cells was removed, and treated with 1 μM Bazedoxifene overnight or DMSO vehicle control, then stained with 10 μg/mL CD19-Fc. Histograms showing CAR expression from a Live Singlet cell gate were plotted.
Human donor T cells were thawed and activated overnight in the presence of CD3/CD28 Dynabeads at 3:1 bead:cell ratio, then transduced with lentivirus from the constructs. Cells were expanded over the course of 10 days, and fresh media was added to maintain cells around 0.5×10^6 cells/ml. On day 9, an aliquot of cells were removed, treated with 1 μM Bazedoxifene overnight, then stained with 10 μg/mL CD19-Fc. Histograms showing CAR expression from a Live Singlet cell gate were plotted. The data are shown in Table 19 and Table 20 where data are presented as % CAR positive cells, where SR indicates stabilization ration.
T cells were transduced with OT-00179, OT-002158, OT-001407 or empty vector and expanded as described herein, frozen on day 10. To confirm the expression and function of this large scale expansion for in vivo use, cells were thawed and incubated overnight in the presence of CD3/28 beads (1:1 bead:cell ratio) and with or without 1 μM Bazedoxifene. FACS staining with 1 μg/mL CD19-Fc was performed to measure the surface expression of CD19-CAR. The data are provided in Table 21 as the percentage CAR positive cells.

Nalm6 target cells [1] = assay: Nalm6 target cell killing by CAR T cells (Incucyte)
Experimental: as §1
(§2) To measure Interferon gamma production, T cells transduced with the constructs OT-00179, OT-002158, OT-001407 or empty vector were thawed and co-cultured with Nalm6 target cells (stably expressing NucRed®) at different ratios of transduced T cells (herein referred to as the Effector) and Nalm 6 cells (herein referred to as the Target). Target cell viability was determined by measuring cellular fluorescence over time using the Incucyte instrument. Data presented in Table 22 are expressed as Nalm6 cell area at representative time points (0, 24, and 42 hour (hr)). The lower the numerical value of the Nalm6 area, the higher the cytotoxicity effected by the Effector cells.

Nalm6 target cells [2] = assay: Interferon gamma in T cell/Nalm6 co-culture supernatants (MSD); conditions: co-culture supernatant at 42 hours
Experimental: as §2
Cell culture supernatants were collected from the T cell/Nalm6 cytotoxicity assay co-cultures at 42 hours. Interferon gamma was measured by MSD and is described in Table 23.

B1: OT-001792: CD8α leader; Linker (RS); ER (L384M, M421G, G521R, Y537S); Furin cleavage site; CD19 CAR; SEQ ID NO. 406 (protein)
chain: MALPVTALLLPLALLLHAARPRSSLALSLTADQMVSALLDAEPPILYSEYDPTRPFSEASMMGLLTNLADRELVHMINWAKRVPGFVDLTLHDQVHLLECAWMEILMIGLVWRSMEHPGKLLFAPNLLLDRNQGKCVEGGVEIFDMLLATSSRFRMMNLQGEEFVCLKSIILLNSGVYTFLSSTLKSLEEKDHIHRVLDKITDTLIHLMAKAGLTLQQQHQRLAQLLLILSHIRHMSNKRMEHLYSMKCKNVVPLSDLLLEMLDAHRLGTGAEDPRPSRKRRSLGDVGEIVMTQSPATLSLSPGERATLSCRASQDISKYLNWYQQKPGQAPRLLIYHTSRLHSGIPARFSGSGSGTDYTLTISSLQPEDFAVYFCQQGNTLPYTFGQGTKLEIKGGGGSGGGGSGGGGSQVQLQESGPGLVKPSETLSLTCTVSGVSLPDYGVSWIRQPPGKGLEWIGVIWGSETTYYSSSLKSRVTISKDNSKNQVSLKLSSVTAADTAVYYCAKHYYYGGSYAMDYWGQGTLVTVSSTTTPAPRPPTPAPTIASQPLSLRPEACRPAAGGAVHTRGLDFACDIYIWAPLAGTCGVLLLSLVITLYCKRGRKKLLYIFKQPFMRPVQTTQEEDGCSCRFPEEEEGGCELRVKFSRSADAPAYKQGQNQLYNELNLGRREEYDVLDKRRGRDPEMGGKPRRKNPQEGLYNELQKDKMAEAYSEIGMKGERRRGKGHDGLYQGLSTATKDTYDALHMQALPPR
- ligand dependent regulation of CAR expression (in words) (primary T cells; 1 μM Bazedoxifene or Raloxifene versus DMSO, day 7 or day 9): did not show any ligand dependent regulation of CAR expression
- % CAR positive cells, Bazedoxifene (primary T cells; Table 21, thawed cells, overnight with CD3/28 beads, 1 μM Bazedoxifene, 1 μg/mL CD19-Fc): 39.6%
- % CAR positive cells, Vehicle (primary T cells; Table 21, thawed cells, overnight with CD3/28 beads, without Bazedoxifene, 1 μg/mL CD19-Fc): 0.39%
- CAR expression, % positive (primary T cells; overnight in the absence of Bazedoxifene): 0.6%
- CAR expression, % positive (primary T cells; overnight in the presence of 1 μM Bazedoxifene): 34%
- Nalm 6 area, total target area (Nalm6 target cells [1]; 0 hr, Effector:Target 0.3:1, + 1 μM Bazedoxifene): 57617.98
- Nalm 6 area, total target area (Nalm6 target cells [1]; 0 hr, Effector:Target 0.3:1, no ligand): 71711.59
- Nalm 6 area, total target area (Nalm6 target cells [1]; 0 hr, Effector:Target 1:1, + 1 μM Bazedoxifene): 67768.82
- Nalm 6 area, total target area (Nalm6 target cells [1]; 0 hr, Effector:Target 1:1, no ligand): 62673.31
- Nalm 6 area, total target area (Nalm6 target cells [1]; 0 hr, Effector:Target 3:1, + 1 μM Bazedoxifene): 54788.54
- Nalm 6 area, total target area (Nalm6 target cells [1]; 0 hr, Effector:Target 3:1, no ligand): 60708.63
- Nalm 6 area, total target area (Nalm6 target cells [1]; 0 hr, Effector:Target 10:1, + 1 μM Bazedoxifene): 55572.92
- Nalm 6 area, total target area (Nalm6 target cells [1]; 0 hr, Effector:Target 10:1, no ligand): 57172.20
- Nalm 6 area, total target area (Nalm6 target cells [1]; 24 hr, Effector:Target 0.3:1, + 1 μM Bazedoxifene): 94217.60
- Nalm 6 area, total target area (Nalm6 target cells [1]; 24 hr, Effector:Target 0.3:1, no ligand): 123175.80
- Nalm 6 area, total target area (Nalm6 target cells [1]; 24 hr, Effector:Target 1:1, + 1 μM Bazedoxifene): 103535.70
- Nalm 6 area, total target area (Nalm6 target cells [1]; 24 hr, Effector:Target 1:1, no ligand): 104433.20
- Nalm 6 area, total target area (Nalm6 target cells [1]; 24 hr, Effector:Target 3:1, + 1 μM Bazedoxifene): 67794.87
- Nalm 6 area, total target area (Nalm6 target cells [1]; 24 hr, Effector:Target 3:1, no ligand): 105474.34
- Nalm 6 area, total target area (Nalm6 target cells [1]; 24 hr, Effector:Target 10:1, + 1 μM Bazedoxifene): 40606.37
- Nalm 6 area, total target area (Nalm6 target cells [1]; 24 hr, Effector:Target 10:1, no ligand): 93991.37
- Nalm 6 area, total target area (Nalm6 target cells [1]; 42 hr, Effector:Target 0.3:1, + 1 μM Bazedoxifene): 143903.95
- Nalm 6 area, total target area (Nalm6 target cells [1]; 42 hr, Effector:Target 0.3:1, no ligand): 197082.75
- Nalm 6 area, total target area (Nalm6 target cells [1]; 42 hr, Effector:Target 1:1, + 1 μM Bazedoxifene): 133539.50
- Nalm 6 area, total target area (Nalm6 target cells [1]; 42 hr, Effector:Target 1:1, no ligand): 171919.20
- Nalm 6 area, total target area (Nalm6 target cells [1]; 42 hr, Effector:Target 3:1, + 1 μM Bazedoxifene): 58548.97
- Nalm 6 area, total target area (Nalm6 target cells [1]; 42 hr, Effector:Target 3:1, no ligand): 180465.55
- Nalm 6 area, total target area (Nalm6 target cells [1]; 42 hr, Effector:Target 10:1, + 1 μM Bazedoxifene): 25302.71
- Nalm 6 area, total target area (Nalm6 target cells [1]; 42 hr, Effector:Target 10:1, no ligand): 156073.75
- CD19-CAR mediated target cell killing (Nalm6 target cells [1]; T cells:Nalm6 10:1 and 2.5:1, 3 days, with or without 1 μM Bazedoxifene): observed specifically in the presence of 1 μM Bazedoxifene
- IFN gamma levels, 1 μM Bazedoxifene (Nalm6 target cells [2]; 1 μM Bazedoxifene): 7079.60 pg/mL
- IFN gamma levels, Vehicle (Nalm6 target cells [2]; vehicle): 91.09 pg/mL
